From patent US20250027068

Biological target: pooled human IgG (human IgG1,2,3 and 4)

Row | Protein | Enzyme Activity Endpoint Assay: Fab′2 | Enzyme Activity Endpoint Assay: Fc | Enzyme Activity Endpoint Assay: IgG | Enzyme Activity Endpoint Assay: scIgG
1 | PRT-494 (protein) MVTSVWTKGVTPPTDFIKGEDVFHAPYKAGQGWYDITKTFNGKDDLLCGAATAGNMLHWWFDQNKEYIEAYLKKHPEKQKIMFGDQELLDVRKAINTKGSQKNSELFNYFRDKAFPNLSARRLGVMPDLVLDMFINGYYLNVTKTQTTDVNRTYQEKDKRGGIFDAVFTRGDQSKLLTSRHDFKEKGLKEISDLIKQELTEGKALGLSHTYANVRINHVINLWGADFDSDGNLKAIYVTDSDSNASIGMKKYFVGVNSAGKVAISAKEIKEDNIGAQVLGLFTLSTGQDIWNQTNLEHHHHHH | 1210 ng/µL | 489 ng/µL | 0 ng/µL | 0 ng/µL
2 | PRT-512 (protein) MITSVWTKGVTPPAKFTQGEDVFHAPYVANQGWYDITKAFDGGDDLLCGAATAGNMLHWWFDQNKEEIEAYLKKHPEKQKIMFGDQELLDVRKVINTKDSQTNSALFNYFKDKAFPNLSARRLGVMPDLVLDMFINGYYLNVYKTQTTDVNRTYQTKDRRGGIFDAVFTRGDQSKLLTERHDLKNKTLKEISDLIKQELTEGKALGLSHTYANVRINHVINLWGADFDSNGNLEAIYVTDSDSNASIGMKKYFVGVNSAGKVAISAKEIKEDNIGAQVLGLFTLSTGQDIWNQTNLEHHHHHH | 884 ng/µL | 372 ng/µL | 31 ng/µL | 0 ng/µL
3 | PRT-513 (protein) MITSVWTKGVTPPAKFTQGEDVFHAPYVANQGWYDITKTFNGKDDLLCGAATAGNMLHWWFDQNKEEIEAYLKKHPEKQKIMFGDQELLDVRKVINTKDSQTNSALFNYFKDKAFPNLSARRLGVMPDLVLDMFINGYYLNVYKTQTTDVNRTYQTKDRRGGIFDAVFTRGDQSKLLTERHDLKNKTLKEISDLIKQELTEGKALGLSHTYANVRINHVINLWGADFDSNGNLEAIYVTDSDSNASIGMKKYFVGVNSAGKVAISAKEIKEDNIGAQVLGLFTLSTGQDIWNQTNLEHHHHHH | 397 ng/µL | 367 ng/µL | 374 ng/µL | 0 ng/µL
4 | PRT-506 (protein) MITSVWTKGVTPPTDFIKGEDVFHAPYKAGQGWYDITKTFNGKDDLLCGAATAGNMLHWWFDQNKEEIEAYLKKHPEKQKIMFGDQELLDVRKVINTKDSQTNSALFNYFKDKAFPNLSARRLGVMPDLVLDMFINGYYLNVYKTQTTDVNRTYQTKDRRGGIFDAVFTRGDQSKLLTERHDFKEKTLKEISDLIKQELTEGKALGLSHTYANVRINHVINLWGADFDSNGNLEAIYVTDSDSNASIGMKKYFVGVNSAGKVAISAKEIKEDNIGAQVLGLFTLSTGQDIWNQTNLEHHHHHH | 1120 ng/µL | 453 ng/µL | 43 ng/µL | 0 ng/µL
5 | PRT-476 (protein) MVTSVWTKGVTPPTNFTYGEDVLHAPYVANQGWYDITKAFDGGDDLLCGAATAGNMLHWWFDQNKEQIENYLKKHPEKQKINFNGEQMFDVKEAIDTKDSQTNSELFNYFKEKAFPYLSTKHLGVFPDHVIDMFINGYRLSLTNHGPTPVKRGSKDPRGGIFDAVFTRGDQSKLLTNRHDLKNKTLKEISDLIKQELTEGKALGISHTYANVRINHVINLWGADFDAEGNLEAIYVTDSDSNASIGMKKYFVGVNSNGKVAISAKEIEEDNIGAQVLGLFTLSTGQDIWNQTNLEHHHHHH | 0 ng/µL | 0 ng/µL | 2090 ng/µL | 0 ng/µL
6 | PRT-454 (protein) MITSVWTKGVTPPTDFIKGEDVFHAPYKAGQGWYDITKAFDGGDDLLCGAATAGNMLHWWFDQNKDQIEAYLKEHPEKQKINFNGEQMFDVKEAIDTKDDQTNSELFNYFKEKAFPYLSTKHLGVFPDHVLDMFINGYRLSLTNHGPTPVKRQEKDPRGGIFDAVFGRGDQTKLLTSRHDFKEKTLNEISQLIKQELTEGKALALSHTYANVRINHVINLWGADFDAEGNLEAIYVTDSDSNASIGMKKYFVGVNSAGKVAISAKEIEDDNIGAQVLGLFTLSTGQKIWNKTNLEHHHHHH | 217 ng/µL | 317 ng/µL | 94 ng/µL | 653 ng/µL
7 | PRT-466 (protein) MITSVWTKGVTPPTDFIKGEDVFHAPYKAGQGWYDITKAFDGGDDLLCGAATAGNMLHWWFDQNKDQIERYLKEHPEKQKINFNGEQMFDVKEAIDTKDSQTNSELFNYFKEKAFPYLSTKHLGVFPDHVLDMFINGYRLSLTNHGPTPVKRQEKDPRGGIFDAVFGRGDQTKLLTSRHDFKEKTLNEISQLIKQELTEGKALGLSHTYANVRINHVINLWGADFDAEGNLEAIYVTDSDSNASIGMKKYFVGVNSAGKVAISAKEIKEDNIGAQVLGLFTLSTGQKIWNKTNLEHHHHHH | 404 ng/µL | 362 ng/µL | 161 ng/µL | 303 ng/µL
8 | PRT-670 (protein) MQITSVWTKGVTPLTPEQFRNNNEDVFHAPYLPNQGWYDITKAFNGKDNLLCGAATAGNMLHWWFDQNKEEIEAYLKKYPEKQKIIFNNQELFDLRKAINTKDSQTNSALFNYFRDKAFPNLSARQLGVMPDHVLDMFINGYYLNVGKTQSTDVNRPYQDKDKRGGIFDHVFNRGDQTKLLTARHDLKNKTLNDISTLIKQELSSGKALALSHTYANVGISHVINLWGADFNAEGNLEAIYVTDSDDRASIGMKKYYVGRNASGHVAISAKKIEGENLGAQVLGLFTLSSGKEIWQKLSLEHHHHHH | 0 ng/µL | 174 ng/µL | 594 ng/µL | 798 ng/µL
9 | PRT-478 (protein) MITSVWTKGVTPPTDFIYGEDVLHAPYKAGQGWYDITKAFDGGDDLLCGAATAGNMLHWWFDQNKEQIENYLKKHPEKQKINFNGEQMFDVKEAIDTKDSQTNSELFNYFKEKAFPYLSTKHLGVFPDHVIDMFINGYRLSLTNHGPTPVKRQEKDPRGGIFDAVFGRGDQTKLLTNRHDFKEKTLNEISQLIKQELTEGKALGISHTYANVRINHVINLWGADFDAEGNLEAIYVTDSDSNASIGMKKYFVGVNSNGKVAISAKEIEEDNIGAQVLGLFTLSTGQKIWNKTNLEHHHHHH | 509 ng/µL | 453 ng/µL | 216 ng/µL | 362 ng/µL
10 | PRT-458 (protein) MVTSVWTKGVTPPTDFIKGEDVFHAPYKAGQGWYDITKTFNGKDDLLCGAATAGNMLHWWFDQNKDQIERYLKEHPEKQKINFNGEQMFDVKEAIDTKDSQTDSKLFEYFKEKAFPYLSTKHLGVFPDHVLDMFINGYRLSLTNHGPTPVKEGSKDPRGGIFDAVFTRGDQSKLLTSRHDFKEKTLKEISDLIKQELTEGKALGLSHTYANVRINHVINLWGADFDSEGNLKAIYVTDSDSNASIGMKKYFVGVNSAGKVAISAKEIKEDNIGAQVLGLFTLSTGQDIWNQTNLEHHHHHH | 598 ng/µL | 224 ng/µL | 112 ng/µL | 226 ng/µL
11 | PRT-460 (protein) MVTSVWTKGVTPPTDFIKGEDVFHAPYKAGQGWYDITKTFNGKDDLLCGAATAGNMLHWWFDQNKDQIERYLKEHPEKQKINFNGEQMFDVKEAIDTKDSQTDSKLFEYFKEKAFPYLSTKHLGVFPDHVLDMFINGYRLSLTNHGPTPVKEGSKDPRGGIFDAVFTRGDQSKLLTSRHDLKNKTLKEISDLIKQELTEGKALGLSHTYANVRINHVINLWGADFDSEGNLKAIYVTDSDSNASIGMKKYFVGVNSAGKVAISAKEIKEDNIGAQVLGLFTLSTGQDIWNQTNLEHHHHHH | 49 ng/µL | 108 ng/µL | 26 ng/µL | 64 ng/µL
12 | PRT-448 (protein) MVTSVWTKGVTPPTDFIKGEDVFHAPYKAGQGWYDITKTFNGKDDLLCGAATAGNMLHWWFDQNKDQIEAYLKEHPEKQKINFNGEQMFDVKEAIDTKDDQTNSKLFEYFKEKAFPYLSTKHLGVFPDHVLDMFINGYRLSLTNHGPTPVKEGSKDPRGGIFDAVFTRGDQSKLLTSRHDLKNKTLKEISDLIKQELTEGKALALSHTYANVRINHVINLWGADFDSNGNLEAIYVTDSDSNASIGMKKYFVGVNSAGKVAISAKEIEDDNIGAQVLGLFTLSTGQDIWNQTNLEHHHHHH | 0 ng/µL | 0 ng/µL | 2150 ng/µL | 0 ng/µL
13 | PRT-502 (protein) MITSVWTKGVTPPTDFIKGEDVFHAPYKAGQGWYDITKAFDGGDDLLCGAATAGNMLHWWFDQNKEYIEAYLKKHPEKQKIMFGDQELLDVRKAINTKGSQKNSELFNYFRDKAFPNLSARRLGVMPDLVLDMFINGYYLNVTKTQTTDVNRQEQEKDKRGGIFDAVFGRGDQTKLLTSRHDFKEKGLNEISQLIKQELTEGKALGLSHTYANVRINHVINLWGADFDADGNLEAIYVTDSDSNASIGMKKYFVGVNSAGKVAISAKEIKEDNIGAQVLGLFTLSTGQKIWNKTNLEHHHHHH | 307 ng/µL | 283 ng/µL | 66 ng/µL | 296 ng/µL
14 | PRT-618 (protein) MQITSVWTKGVIPLTPEQFRYNNEDVIHAPYLPHQGWYDITKAFDGGDNLLCGAATAGNMLHWWFDQNKTEIEAYLSKYPEKQKIIFNNQELFDLRAAINTKDSQTNSQLFNYFRDKAFPNLSARQLGVMPDLVLDMFINGYYLNVFKTQSTDVNRPYQDRDKRGGIFDHVFGRGDQTTLLTARHDLKNGGLNDISTIIKQELQSGRALALSHTYANVSISHVINLWGADFNAEGNLEAIYVTDSDANSSIGMKKYYVGINAHGHVAISAKKIEGENIGAQVLGLFTLSSGKEIWQKLSLEHHHHHH | 976 ng/µL | 419 ng/µL | 0 ng/µL | 0 ng/µL
